The source of these data is patent US12630600B2 (MEDIMMUNE LIMITED, priority 2022, dated 2026).

Starred links: 1 amine or outer side, 2 acyl side, 3 side chain; linkers in the order of their positions; H or OH if unused. Non-standard residues stand in square brackets, D forms with d. Groups on a side chain read outwards from the residue. No end group written: not given here. *: point of attachment. C18 diacid = O=C(O)CCCCCCCCCCCCCCCCC(=O)*; γGlu = O=C(O)[C@H](CCC(=O)[*:2])N[*:1]; αMeF = C[C@](N)(Cc1ccccc1)C(=O)O; AEEA = NCCOCCOCC(=O)O; Aib = CC(C)(N)C(=O)O

One experiment addresses human glucagon receptor (human, UniProt P47871). Put plainly: cell-based or functional assay.
The target of a further experiment is human GLP-1 receptor (human, UniProt P43220). Put plainly: cell-based or functional assay.

B1: Peptide 3 (peptide)
peptide: HSQGS[αMeF]TSDVSK[αMeF]LDSK([γGlu-C18 diacid])AAQDFVQWIANT-NH2
modifications: N-terminus assumed
SMILES: CC[C@H](C)[C@H](NC(=O)[C@H](Cc1c[nH]c2ccccc12)NC(=O)[C@H](CCC(N)=O)NC(=O)[C@@H](NC(=O)[C@H](Cc1ccccc1)NC(=O)[C@H](CC(=O)O)NC(=O)[C@H](CCC(N)=O)NC(=O)[C@H](C)NC(=O)[C@H](C)NC(=O)[C@H](CCCCNC(=O)CC[C@H](NC(=O)CCCCCCCCCCCCCCCCC(=O)O)C(=O)O)NC(=O)[C@H](CO)NC(=O)[C@H](CC(=O)O)NC(=O)[C@H](CC(C)C)NC(=O)[C@](C)(Cc1ccccc1)NC(=O)[C@H](CCCCN)NC(=O)[C@H](CO)NC(=O)[C@@H](NC(=O)[C@H](CC(=O)O)NC(=O)[C@H](CO)NC(=O)[C@@H](NC(=O)[C@](C)(Cc1ccccc1)NC(=O)[C@H](CO)NC(=O)CNC(=O)[C@H](CCC(N)=O)NC(=O)[C@H](CO)NC(=O)[C@@H](N)Cc1c[nH]cn1)[C@@H](C)O)C(C)C)C(C)C)C(=O)N[C@@H](C)C(=O)N[C@@H](CC(N)=O)C(=O)N[C@H](C(N)=O)[C@@H](C)O
Take B1: the “cAMP production, hGluc-R EC50 (pM)” value with human glucagon receptor came out at 149 pM. In addition, in the experiment with human GLP-1 receptor, the “cAMP production, hGLP-1R EC50 (pM)” value came to 69 pM.

B2: Peptide 42 (peptide)
peptide: H[Aib]QGTFTSDVSK[αMeF]LDSK([AEEA-AEEA-γGlu-C18 diacid])RAQDFVQ[Aib]LVAT-OH
modifications: N-terminus assumed
SMILES: CC(C)C[C@H](NC(=O)C(C)(C)NC(=O)[C@H](CCC(N)=O)NC(=O)[C@@H](NC(=O)[C@H](Cc1ccccc1)NC(=O)[C@H](CC(=O)O)NC(=O)[C@H](CCC(N)=O)NC(=O)[C@H](C)NC(=O)[C@H](CCCNC(=N)N)NC(=O)[C@H](CCCCNC(=O)COCCOCCNC(=O)COCCOCCNC(=O)CC[C@H](NC(=O)CCCCCCCCCCCCCCCCC(=O)O)C(=O)O)NC(=O)[C@H](CO)NC(=O)[C@H](CC(=O)O)NC(=O)[C@H](CC(C)C)NC(=O)[C@](C)(Cc1ccccc1)NC(=O)[C@H](CCCCN)NC(=O)[C@H](CO)NC(=O)[C@@H](NC(=O)[C@H](CC(=O)O)NC(=O)[C@H](CO)NC(=O)[C@@H](NC(=O)[C@H](Cc1ccccc1)NC(=O)[C@@H](NC(=O)CNC(=O)[C@H](CCC(N)=O)NC(=O)C(C)(C)NC(=O)[C@@H](N)Cc1c[nH]cn1)[C@@H](C)O)[C@@H](C)O)C(C)C)C(C)C)C(=O)N[C@H](C(=O)N[C@@H](C)C(=O)N[C@H](C(=O)O)[C@@H](C)O)C(C)C
With B2, the “cAMP production, hGluc-R EC50 (pM)” value in the experiment with human glucagon receptor came to 8190 pM. The “cAMP production, hGLP-1R EC50 (pM)” value in the experiment with human GLP-1 receptor came to 665 pM.

B3: Peptide 40 (peptide)
peptide: H[Aib]QGTFTSDVSK[αMeF]LDSK([AEEA-AEEA-γGlu-C18 diacid])RAQDFVQWLL[Aib]T-OH
modifications: N-terminus assumed
SMILES: CC(C)C[C@H](NC(=O)[C@H](Cc1c[nH]c2ccccc12)NC(=O)[C@H](CCC(N)=O)NC(=O)[C@@H](NC(=O)[C@H](Cc1ccccc1)NC(=O)[C@H](CC(=O)O)NC(=O)[C@H](CCC(N)=O)NC(=O)[C@H](C)NC(=O)[C@H](CCCNC(=N)N)NC(=O)[C@H](CCCCNC(=O)COCCOCCNC(=O)COCCOCCNC(=O)CC[C@H](NC(=O)CCCCCCCCCCCCCCCCC(=O)O)C(=O)O)NC(=O)[C@H](CO)NC(=O)[C@H](CC(=O)O)NC(=O)[C@H](CC(C)C)NC(=O)[C@](C)(Cc1ccccc1)NC(=O)[C@H](CCCCN)NC(=O)[C@H](CO)NC(=O)[C@@H](NC(=O)[C@H](CC(=O)O)NC(=O)[C@H](CO)NC(=O)[C@@H](NC(=O)[C@H](Cc1ccccc1)NC(=O)[C@@H](NC(=O)CNC(=O)[C@H](CCC(N)=O)NC(=O)C(C)(C)NC(=O)[C@@H](N)Cc1c[nH]cn1)[C@@H](C)O)[C@@H](C)O)C(C)C)C(C)C)C(=O)N[C@@H](CC(C)C)C(=O)NC(C)(C)C(=O)N[C@H](C(=O)O)[C@@H](C)O
With B3, in the experiment with human glucagon receptor, the “cAMP production, hGluc-R EC50 (pM)” value is 123 pM. In the experiment with human GLP-1 receptor, the “cAMP production, hGLP-1R EC50 (pM)” value is 29.9 pM.
